Experimental data published in patent US20260028403A1 (Zymeworks, published 2026).
Each block holds one binder with its values, some of them ahead of it.

Tests used:
[1] = molecular target: T1, Recombinant human CD3 epsilon/delta heterodimer, his tag protein (Acro Biosystems) (human, UniProt P07766 23-126; P04234 22-105); experiment: SPR Biacore T200, CD3 e/d-his on CM5, construct injected, 1:1 model;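 further: measured at 25 °C in HEPES-buffered saline with EDTA and Tween 20 at pH 7.4, values are means of three independent runs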
T1 construct: bought
Method: All SPR binding experiments were carried out using a BiacoreT200 instrument at 25° C. with 10 mM HEPES, 150 mM NaCl, 3 mM EDTA, and 0.05% Tween 20 at pH 7.4. Recombinant human CD3 epsilon/delta heterodimer, his tag protein (Acro Biosystems) was covalently immobilized on CM5 sensor chips by amine coupling. Purified antibody constructs to be tested were indirectly captured on the sensor chip by binding to the recombinant CD3 protein when injected at 30 μL/min for 140-500 s following a dissociation for 600-1200 s. Resultant kₒₙ, koff and KD values were determined from fitting the sensorgrams using the 1:1 binding model with reported values as the mean of three independent runs.

[2] = molecular target: T2, Recombinant human/cynomolgus/rhesus macaque CD28 mouse IgG2a Fc fusion protein (Acro Biosystems) (human/cynomolgus/rhesus macaque, UniProt P10747 19-152); experiment: SPR Biacore T200, CD28-mIgG2a Fc on CM5, construct injected, 1:1 model;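 further: fc fusion captured by amine coupling, run at 25 °C in HEPES buffer pH 7.4, association 140-500 s then dissociation 600-1200 s, values averaged over three independent runs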
T2 construct: bought; also called huCD28

Kd [1]: 160 nM
koff [1]: 0.021 s⁻¹
kon [1]: 134000 M⁻¹ s⁻¹
Kd [2]: 434 nM
koff [2]: 0.0132 s⁻¹
kon [2]: 30400 M⁻¹ s⁻¹
B1: v37636 (trispecific antibody, human IgG1, lambda, L234A L235A)
heavy 1: QVQLVESGGGLVQPGGSLRLSCSVSGIDLSSNPMIWVRQAPGKGLQYIGIIDTDGSTYYADWAKGRFTISKDSTTVYLQINSPRAEDTAVYYCARRLHGSSNGYYDDLWGQGTLVTVSSGGGGSGGGGSGGGGSGGGGSDGQMTQSPSSVSASVGDRVTITCQASQSIYSYLSWYQQKPGQRPKLLIYKASTLASGVPSRFSGSGSGTDFTLTISSVQPEDFATYYCQQGYTVTNVDKNTFGGGTKVEIKGGGGSGEVQLVESGGGLVQPGGSLRLSCAASGVTFNYYGMSWIRQAPGKGLEWVASITSSGGRIYYPDSVKGRFTISRENTQKTLYLQMNSLRAEDTAVYYCTLDGRDGWVAYWGQGTLVTVSSASTKGPSVFPLAPSSKSTSGGTAALGCLVKDYFPEPVTVSWNSGALTSGVHTFPAVLQSSGLYSLSSVVTVPSSSLGTQTYICNVNHKPSNTKVDKKVEPKSCDKTHTCPPCPAPEAAGGPSVFLFPPKPKDTLMISRTPEVTCVVVSVSHEDPEVKFNWYVDGVEVHNAKTKPREEQYNSTYRVVSVLTVLHQDWLNGKEYKCKVSNKALPAPIEKTISKAKGQPREPQVYVYPPSRDELTKNQVSLTCLVKGFYPSDIAVEWESNGQPENNYKTTPPVLDSDGSFALVSKLTVDKSRWQQGNVFSCSVMHEALHNHYTQKSLSLSPGGGGGSGDIQMTQSPSSLSASVGDRVTITCRASESVEYYVTSLMQWYQQKPGKAPKLLIYAASNVDSGVPSRFSGSGSGTDFTLTISSLQPEDIATYYCQQSRKVPFTFGGGTKVEIKGGGGSGGGGSGGGGSGGGGSQVQLQESGPGLVKPSETLSLTCAVSGFSLTSYGVHWIRQPPGKGLEWLGVIWPGGGTNFNSALMSRLTISEDTSKNQVSLKLSSVTAADTAVYYCARDRAYGNYLYAMDYWGQGTLVTVSS
heavy 2: EPKSSDKTHTCPPCPAPEAAGGPSVFLFPPKPKDTLMISRTPEVTCVVVSVSHEDPEVKFNWYVDGVEVHNAKTKPREEQYNSTYRVVSVLTVLHQDWLNGKEYKCKVSNKALPAPIEKTISKAKGQPREPQVYVLPPSRDELTKNQVSLLCLVKGFYPSDIAVEWESNGQPENNYLTWPPVLDSDGSFFLYSKLTVDKSRWQQGNVFSCSVMHEALHNHYTQKSLSLSPG
light: NFMLTQPHSVSESPGKTVTISCKRNTGNIGSNYVNWYQQHEGSSPTTIIYRNDKRPDGVSDRFSGSIDRSSKSASLTISNLKTEDEADYFCQSYSSGFIFGGGTKLTVLGQPKAAPSVTLFPPSSEELQANKATLVCLISDFYPGAVTVAWKADSSPVKAGVETTTPSKQSNNKYAASSYLSLTPEQWKSHRSYSCQVTHEGSTVEKTVAPTECS
notes: second heavy chain is Fc only; Het Fc, FcKO; also called Cldn18.2xCD3xCD28 trispecific

Kd [1]: 106 nM
koff [1]: 0.0129 s⁻¹
kon [1]: 121000 M⁻¹ s⁻¹
Kd [2]: 61.4 nM
koff [2]: 0.00692 s⁻¹
kon [2]: 113000 M⁻¹ s⁻¹
B2: v37637 (trispecific antibody, human IgG1, lambda, L234A L235A)
heavy 1: not shown
heavy 2: QVQLVESGGGLVQPGGSLRLSCSVSGIDLSSNPMIWVRQAPGKGLQYIGIIDTDGSTYYADWAKGRFTISKDSTTVYLQINSPRAEDTAVYYCARRLHGSSNGYYDDLWGQGTLVTVSSGGGGSGGGGSGGGGSGGGGSDGQMTQSPSSVSASVGDRVTITCQASQSIYSYLSWYQQKPGQRPKLLIYKASTLASGVPSRFSGSGSGTDFTLTISSVQPEDFATYYCQQGYTVTNVDKNTFGGGTKVEIKGGGGSGEVQLVESGGGLVQPGGSLRLSCAASGVTFNYYGMSWIRQAPGKGLEWVASITSSGGRIYYPDSVKGRFTISRENTQKTLYLQMNSLRAEDTAVYYCTLDGRDGWVAYWGQGTLVTVSSASTKGPSVFPLAPSSKSTSGGTAALGCLVKDYFPEPVTVSWNSGALTSGVHTFPAVLQSSGLYSLSSVVTVPSSSLGTQTYICNVNHKPSNTKVDKKVEPKSCDKTHTCPPCPAPEAAGGPSVFLFPPKPKDTLMISRTPEVTCVVVSVSHEDPEVKFNWYVDGVEVHNAKTKPREEQYNSTYRVVSVLTVLHQDWLNGKEYKCKVSNKALPAPIEKTISKAKGQPREPQVYVLPPSRDELTKNQVSLLCLVKGFYPSDIAVEWESNGQPENNYLTWPPVLDSDGSFFLYSKLTVDKSRWQQGNVFSCSVMHEALHNHYTQKSLSLSPG
light: B1 light
notes: Het Fc, FcKO; also called Cldn18.2xCD3xCD28 trispecific

Kd [1]: 492 nM
koff [1]: 0.0144 s⁻¹
kon [1]: 29200 M⁻¹ s⁻¹
Kd [2]: 23.9 nM
koff [2]: 0.00201 s⁻¹
kon [2]: 84100 M⁻¹ s⁻¹
B3: v37639 (trispecific antibody, human IgG1, kappa, L234A L235A)
heavy 1: not shown
heavy 2: QVQLVESGGGLVQPGGSLRLSCSVSGIDLSSNPMIWVRQAPGKGLQYIGIIDTDGSTYYADWAKGRFTISKDSTTVYLQINSPRAEDTAVYYCARRLHGSSNGYYDDLWGQGTLVTVSSGGGGSGGGGSGGGGSGGGGSDGQMTQSPSSVSASVGDRVTITCQASQSIYSYLSWYQQKPGQRPKLLIYKASTLASGVPSRFSGSGSGTDFTLTISSVQPEDFATYYCQQGYTVTNVDKNTFGGGTKVEIKAAEPKSSDKTHTCPPCPAPEAAGGPSVFLFPPKPKDTLMISRTPEVTCVVVSVSHEDPEVKFNWYVDGVEVHNAKTKPREEQYNSTYRVVSVLTVLHQDWLNGKEYKCKVSNKALPAPIEKTISKAKGQPREPQVYVLPPSRDELTKNQVSLLCLVKGFYPSDIAVEWESNGQPENNYLTWPPVLDSDGSFFLYSKLTVDKSRWQQGNVFSCSVMHEALHNHYTQKSLSLSPG
light: DIQMTQSPSSLSASVGDRVTITCRASESVEYYVTSLMQWYQQKPGKAPKLLIYAASNVDSGVPSRFSGSGSGTDFTLTISSLQPEDIATYYCQQSRKVPFTFGGGTKVEIKRTVAAPSVFIFPPSDEQLKSGTASVVCLLNNFYPREAKVQWKVDNALQSGNSQESVTEQDSKDSTYSLSSTLTLSKADYEKHKVYACEVTHQGLSSPVTKSFNRGECGGGGSGNFMLTQPHSVSESPGKTVTISCKRNTGNIGSNYVNWYQQHEGSSPTTIIYRNDKRPDGVSDRFSGSIDRSSKSASLTISNLKTEDEADYFCQSYSSGFIFGGGTKLTVLGGGGSGGGGSGGGGSGGGGSEVQLVESGGGLVQPGGSLRLSCAASGVTFNYYGMSWIRQAPGKGLEWVASITSSGGRIYYPDSVKGRFTISRENTQKTLYLQMNSLRAEDTAVYYCTLDGRDGWVAYWGQGTLVTVSS
notes: Het Fc, FcKO; also called Cldn18.2xCD28xCD3 trispecific
